Here are results for two molecules from publication doi:10.1101/2022.08.30.505823 (bioRxiv, 2022).

The target of series [1] is BIRC6 (human, wild type, recombinant) (human) (UniProt Q9NR09). Nature of the series: mass photometry. Conditions: remark: other sources report otherwise.
The target is the same in series [2]. Nature of the series: cryo-EM structure. Conditions: remark: other sources report otherwise.
Series [3] concerns the molecule itself. The series can be described thus: cryo-EM structure.

For “BIRC6 (human, wild type, recombinant), Q9NR09 1-4857”, the stoichiometry N in series [1] and in series [2] was 2 each time.

B1: SMAC (natural protein)
chain: AVPIAQKSEPHSLSSEALMRRAVSLVTDSTSTFLSQTTYALIEAITEYTKAVYTLTSLYRQYTSLLGKMNSEEEDEVWQVIIGARAEMTSKHQEYLKLETTWMTAVGLSEMAAEAAYQTGADQASITARNHIQLVKLQVEEVHQLSRKAETKLAEAQIEELRQKTQEEGEERAESEQEAYLRED
With B1, the stoichiometry N (commonly a count of units in the complex or per binding partner) in series [3] amounted to 2.
